Measurements from patent US20040014191A1, “Nitroreductase enzymes” (priority 1999, published 2004).
“Also recorded” adds a separate entry of the source. Read-outs that look alike come from different tables or passages of the source.

B1: H. influenzae NfnB: nitroreductase from H. influenzae, SEQ ID NO: 17 (protein, listed as Haemophilus influenzae)
chain: MTQLTREQVLELFHQRSSTRYYDPTKKISDEDFECILECGRLSPSSVGSEPWKFLVIQNKTLREKMKPFSWGMINQLDNCSHLVVILAKKNARYDSPFFVDVMARKGLNAEQQQAALTKYKALQEEDMKLLENDRTLFDWCSKQTYIALANMLTGASALGIDSCPIEGFHYDKMNECLAEEGLFDPQEYAVSVAATFGYRSRDIAKKSRKGLDEVVKWVG
B2: Bam YwrO: nitroreductase from B. amyloliquefaciens, SEQ ID NO: 2 (protein, listed as Bacillus amyloliquefaciens)
chain: VKVLVLAVHPDMENSAVNKAWAEELKKHDELTVRELYKEYPDGQIDAEKERQLCEQYDRIVFQFPLYWYSAPPLLKTWMDHVLSYGWAYGSKGKALHGKELMLAVSVGAGEDAYQAGGSNHFTLSELLRPFQAMANFTGMTYLPAFALYGVNGADATDIHDNAKRLAAYIKKSF
B3: E. coli NfnB: the known E. coli B nitroreductase enzyme (NfnB) (protein)
chain: MDIISVALKRHSTKAFDASKKLTPEQAEQIKTLLQYSPSSTNSQPWHFIVASTEEGKARVAKSAAGNYVFNERKMLDASHVVVFCAKTAMDDVWLKLVVDQEDADGRFATPEAKAANDKGRKFFADMHRKDLHDDAEWMAKQVYLNVGNFLLGVAALGLDAVPIEGFDAAILDAEFGLKEKGYTSLVVVPVGHHSVEDFNATLPKSRLPQNITLTEV
B4: YdgI (Bacillus subtilis subsp. subtilis str. 168) (protein)
chain: MIKTNDFMEIMKGRRSIRNYDPAVKISKEEMTEILEEATTAPSSVNAQPWRFLVIDSPEGKEKLAPLASFNQTQVTTSSAVIAVFADMNNADYLEEIYSKAVELGYMPQEVKDRQIAALTAHFEKLPAQVNRETILIDGGLVSMQLMLTARAHGYDTNPIGGYDKENIAETFGLDKERYVPVMLLSIGKAADEGYASYRLPIDTIAEWK
notes: made in house; host or cells: E. coli (pMTL1015; HMS174)

Experiments:
CC1=CC(=O)c2ccccc2C1=O = experiment: purified protein, by the assay type; details: pH 7.0, 37.0 °C
[1] = type: biochemical; details: for Cofactor: Table 6
[2] = Nitroreductase enzyme assay with CB 1954 as substrate (HPLC); type: biochemical; details: for CB1954 kcat: Table 1
[3] = Flavin reductase assay with FMN and FAD; type: biochemical; details: for Flavin reductase: Table 6
Description: (§1) Assays were carried out spectrophotometrically at 37° C. in 10 mM Tris pH 7.5 using cytochrome c as terminal electron acceptor.

[4] = Quinone reductase assay with menadione, cytochrome c as terminal electron acceptor; type: biochemical; details: for Quinone reductase: Table 6
Description: as §1

V79 cells = experiment: In vitro cytotoxicity test, prodrug + enzyme + cofactor, SRB assay; type: cell-based
Description: Microtitre plates (96 well) were obtained pre-seeded with V79 cells at 10,000 cells/ml (European Collection of Animal Cell Cultures, ECACC) in DMEM+10% foetal calf serum. All treatments were prepared on duplicate plates and transferred to the cells prior to adding enzyme (10 μl) to the appropriate wells. […] Enzymes were diluted in sterile PBS. All aqueous solutions were filter sterilised before use and operations carried out aseptically in a laminar flow hood. […] Cytotoxicity was quantified by sulphorhodamine B (SRB) assay. Briefly, the growth medium was removed and the cells fixed by addition of 100 μl per well of cold 10% TCA for 30 min. The TCA was removed and the fixed cells washed with water before adding 100 μl per well of 0.4% dye in 1% acetic acid and incubating at room temperature for 30 min. Excess dye was removed and the wells washed 4 times with 1% acetic acid. After air drying at room temperature the dye was solubilised by adding 100 μl of 10 mM Tris to each well and shaking for 15 min. […] Cytotoxicity towards treated cells was expressed as % of A492 of untreated controls and statistical analysis was performed using the Mann-Whitney test. ED50's were caculated using probit analysis.

[5] = Nitroreductase enzyme assay with SN 23862 as substrate (HPLC); type: biochemical
[6] = type: biochemical; details: Table 6
[7] = test system: recombinant enzymes (antigens); experiment: Polyclonal antisera titres by ELISA; type: binding; details: rabbit antiserum; for Post-boost titre: 10 days after booster; for Pre-boost titre (50%): after 8 weeks
Description: Polyclonal antisera were raised against recombinant enzymes by immunising rabbits with […] of protein in 50% PBS:50% Freund's complete adjuvant, total volume 400 μl. Blood was collected by ear bleed after 6-8 weeks and again 10 days after a booster immunisation of protein, and titre assessed by ELISA. 96-well plates were coated with 1 μg ml^−1 of the proteins and blocked with 10% v/v foetal calf serum (FCS), antibodies were diluted in assay buffer (1% FCS) and applied in doubling dilutions across the plate from 1 in 100 to 1 in 51 200 or 1 in 150 to 1 in 76 800. A secondary antibody conjugated with HRP (dilution 1 in 10 000) was used to develop the assay with 3,3′,5,5′-tetramethylbenzidine (TMB) as substrate.
Antisera to E. coli B NfnB and six novel proteins (Haemophilus influenzae and Campylobacter jejuni NfnB homologues, YdgI and YodC of Bacillus subtilis, YwrO of B. amyloliquefaciens and Porphyromonas gingivalis YwrO homologue) have been raised in rabbits by inoculation with 100 μg of protein in PBS+ Freund's complete adjuvant. Titres were assessed by ELISA after 8 weeks, and 10 days after a booster inoculation of a further 100 μg of protein per rabbit. Pre-immune sera were also tested.
96 well plates were coated overnight at 4° C. with the antigens at 1 μg/ml. After washing and blocking antisera were added in doubling dilutions in an appropriate range across the plates. The plates were developed using goat anti-rabbit IgG peroxidase conjugate with TMB as substrate, and read at 450 nm.

[8] = test system: recombinant enzymes (antigens); experiment: Western blots of antigens with rabbit antisera; type: binding; details: antisera 1/10000 or 1/20000, ECL detection
Description: Recombinant enzymes were run on SDS PAGE 4-20% gradient at 0.05, 0.5, 5, 50 and 500 ng with 500 ng of the other antigens to test cross-reactivity. The antisera were added at a dilution of 1/10 000 or 1/20 000. Secondary antibody dilutions were as shown above and detection was by ECL (Amersham).
Antigens were run on SDS PAGE 4-20% gradient at 0.05, 0.5, 5, 50 and 500 ng with 500 ng of other antigens to test cross-reactivity. The antisera were added at a dilution of 1/10000 (α-P. gingivalis YwrO, α-YwrO BAM and α-H. influenzae NfnB) or 1/20000 (α-E. coli B NfnB and α-YdgI). Secondary antibody dilutions were as shown above and detection was by ECL.

[9] = substrate: CC1=CC(=O)c2ccccc2C1=O; experiment: Substrate and cofactor specificity for YdgI; type: biochemical, Bacillus subtilis; details: other: cofactor NADH, 37° C., 10 mM Tris pH 7.5, pH 7.5
Description: (§2) Quantitative assays using CB 1954 or SN 23862 as substrate were carried out at 37° C. by HPLC as previously described (2) (3). […] Incubation times varied according to the enzyme activity being studied.

[10] = substrate: Cc1cc2nc3c(=O)[nH]c(=O)nc-3n(C[C@H](O)[C@H](O)[C@H](O)COP(=O)(O)O)c2cc1C; experiment: Substrate and cofactor specificity for YdgI; type: biochemical, Bacillus subtilis
Description: as §2

[11] = substrate: Cc1cc2nc3c(=O)[nH]c(=O)nc-3n(C[C@H](O)[C@H](O)[C@H](O)COP(=O)(O)OP(=O)(O)OC[C@H]3O[C@@H](n4cnc5c(N)ncnc54)[C@H](O)[C@@H]3O)c2cc1C; experiment: Substrate and cofactor specificity for YdgI; type: biochemical, Bacillus subtilis; details: other: cofactor NADH, 37° C., 10 mM Tris pH 7.5, pH 7.5
Description: as §2

[12] = Table 6, 37° C., read-out: Km CB 1954
[13] = Table 2, recombinant B. subtilis enzymes, crude lysates
[14] = other: cofactor NADH, 37° C., 10 mM Tris pH 7.5, pH 7.5

Molecule | Cofactor [1] | reduction of CB1954: activity and product formed [2] | Km [2, 12] | CB 1954 product ([2]; Table 6, recombinant enzymes) | Flavin reductase [3] | activity with menadione / quinone reductase [4] | Quinone reductase [4] | activity with SN23862 [5] | Azo-Reductase [6] | Post-boost titre [7] | Pre-boost titre (50%) [7] | amount of antigen detected by its antiserum in Western blot [8] | kcat for CB1954 (text) [2] | CB1954 kcat [2] | CB 1954 product ([2]; Table 1, purified enzymes) | flavin reductase activity [3] | SN23862 kcat ([5]; Table 1) | also measured
H. influenzae NfnB (Haemophilus influenzae Rd KW20) |  |  |  |  |  |  |  |  |  |  |  |  |  |  |  |  |  | Km (CC1=CC(=O)c2ccccc2C1=O; other: 1 mM NADH): 0.8 ± 0.2 μM μM; Km (CC1=CC(=O)c2ccccc2C1=O; other: 1 mM NADPH): 9.0 ± 0.6 μM μM
B1 | NADPH | form the 4HX reduction product of CB1954 | 690 µM | 4HX | Weak | lacks activity with the quinone menadione | Yes | weak activity with SN23862 | No | 760 | 180 |  |  |  |  |  |  | kcat (CB 1954) ([2]; Table 6, 37° C.): 56.2 s⁻¹; flavin reductase activity ([3]; listed as H. influenzae NfnB homologue): lacks activity with the quinone menadione and flavins FMN or FAD; also recorded: little activity; in vitro cytotoxicity of CB 1954 with enzyme (V79 cells; FIG. 3): most potent; in vitro cytotoxicity of SN 23862 with enzyme (V79 cells; FIG. 4): most potent; SN 23862 acitvity, second number of the cell (kcat) ([5]; Table 6, HPLC assay): 39.8; Km ([5]; Table 6, HPLC assay, read-out: SN 23862 acitvity, first number of the cell (Km)): 3360 µM
B2 |  | 4HX product only |  |  |  |  |  |  |  | 2800 | 1200 | 500 ng | 8.2 s⁻¹ | 2 s⁻¹ | 4HX | has azoreductase and flavin reductase activity | inactive | Km ([1]; read-out: Km for NADPH as cofactor): 40 µM; Km ([2]; read-out: Km for CB1954): 617 µM; Km ([3]; read-out: Km for FAD): 209 µM; Km ([3]; read-out: Km for FMN): 53 µM; Km ([4]; read-out: Km for menadione): 3.4 µM; SN23862 Km ([5]; Table 1): inactive; activity with SN23862 ([5]; listed as YwrO BAM): not SN23862; activity with SN23862 ([5]; listed as YwrO of B. amyloliquefaciens): inactive with this substrate
B3 |  |  |  |  |  |  |  |  |  |  |  | 5 ng | 6 s⁻¹ | 6 s⁻¹ | 2/4HX |  | 26.4 s⁻¹ | kcat for CB1954 (text) ([2]; listed as E. coli enzyme): about 6; Km ([2]; summary statement, read-out: Km for CB1954): ~862 µM
B4 | NADPH | both the 2HX and 4HX derivatives | 3860 µM | 4HX | Yes | high affinity for menadione and flavins | Yes | active against both CB1954 and SN23862 | Yes | 25000 | 4900 |  | 30.3 s⁻¹ |  |  | high affinity for menadione and flavins |  | kcat (CB 1954) [2]: 30.3 s⁻¹; CB1954 (product formed / activity) [2, 13]: 2/4HX; kcat for CB1954 (text) ([2]; listed as SEQ ID NO: 9): about 15; Km [9]: 127.0 ± 10 µM; kcat [9]: 628 ± 16.8 s⁻¹; kcat/Km [9]: 4.94e+06 M⁻¹ s⁻¹; Km [10, 14]: 158.0 ± 16 µM; kcat [10, 14]: 3000 ± 94.8 s⁻¹; kcat/Km [10, 14]: 1.9e+07 M⁻¹ s⁻¹; Km ([10]; other: cofactor NADPH, 37.0 °C): 12.0 ± 1.4 µM; kcat ([10]; other: cofactor NADPH, 37.0 °C): 345 ± 7.6 s⁻¹; kcat/Km ([10]; other: cofactor NADPH, 37.0 °C): 2.87e+07 M⁻¹ s⁻¹; Km [11]: 150.0 ± 19.0 µM; kcat [11]: 2580 ± 79 s⁻¹; kcat/Km [11]: 1.72e+07 M⁻¹ s⁻¹; SN23862 (activity) [5, 13]: active; SN 23862 acitvity ([5]; Table 6): Yes; activity with SN23862 ([5]; listed as YdgI BS): did not show Michaelis-Menten kinetics
